Experimental data published in patent publication US20240310359A1.

Target: SERCA1a, mouse (endogenous, differentiated skeletal muscle cells) (mouse) (UniProt Q8R429)
Assay: cell-based or functional assay

SERCA1a, mouse (endogenous, differentiated skeletal muscle cells) (mouse), sequence (Q8R429 whole entry): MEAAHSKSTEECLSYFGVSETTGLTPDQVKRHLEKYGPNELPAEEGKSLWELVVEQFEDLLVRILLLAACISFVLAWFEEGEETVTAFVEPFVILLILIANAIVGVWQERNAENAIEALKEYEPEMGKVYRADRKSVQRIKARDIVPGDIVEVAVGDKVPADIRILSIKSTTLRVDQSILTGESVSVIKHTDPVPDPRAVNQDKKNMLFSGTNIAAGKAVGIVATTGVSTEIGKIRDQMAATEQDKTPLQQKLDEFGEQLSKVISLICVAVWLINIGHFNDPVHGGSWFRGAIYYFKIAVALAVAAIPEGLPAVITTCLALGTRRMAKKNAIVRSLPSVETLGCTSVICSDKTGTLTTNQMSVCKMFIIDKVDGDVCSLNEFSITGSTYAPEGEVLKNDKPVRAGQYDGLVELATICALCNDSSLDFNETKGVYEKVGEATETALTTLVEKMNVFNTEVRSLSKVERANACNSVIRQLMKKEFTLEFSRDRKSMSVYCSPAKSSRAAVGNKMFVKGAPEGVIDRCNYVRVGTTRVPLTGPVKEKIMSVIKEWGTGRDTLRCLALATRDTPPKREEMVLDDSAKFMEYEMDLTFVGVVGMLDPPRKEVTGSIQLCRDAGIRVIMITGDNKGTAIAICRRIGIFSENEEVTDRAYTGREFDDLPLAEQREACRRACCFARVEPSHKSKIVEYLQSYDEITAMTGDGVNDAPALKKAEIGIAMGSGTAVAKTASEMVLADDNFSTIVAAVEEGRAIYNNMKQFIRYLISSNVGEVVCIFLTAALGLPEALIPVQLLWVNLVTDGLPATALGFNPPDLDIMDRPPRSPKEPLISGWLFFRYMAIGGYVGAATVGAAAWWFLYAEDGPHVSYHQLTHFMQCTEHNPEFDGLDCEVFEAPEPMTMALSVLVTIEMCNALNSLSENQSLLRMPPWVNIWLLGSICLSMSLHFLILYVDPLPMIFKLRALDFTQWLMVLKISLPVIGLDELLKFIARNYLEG
NHL-Del (mutant of TRIM32 without NHL repeats, expressed from pEGFP-N1 in mouse differentiated skeletal muscle cells), sequence (Q13049 1-361, stated change not applied): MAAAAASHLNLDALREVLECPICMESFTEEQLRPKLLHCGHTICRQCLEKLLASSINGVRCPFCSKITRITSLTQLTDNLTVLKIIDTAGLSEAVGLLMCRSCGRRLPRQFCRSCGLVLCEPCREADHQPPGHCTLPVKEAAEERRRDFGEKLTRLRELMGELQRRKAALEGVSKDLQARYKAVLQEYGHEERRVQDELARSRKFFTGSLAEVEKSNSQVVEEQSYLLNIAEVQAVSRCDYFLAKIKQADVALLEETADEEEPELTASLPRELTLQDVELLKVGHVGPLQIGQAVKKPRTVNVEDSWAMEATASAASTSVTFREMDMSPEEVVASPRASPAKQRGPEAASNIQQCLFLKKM
wild-type TRIM32 (expressed from pEGFP-N1 in mouse differentiated skeletal muscle cells) (from UniProt Q13049 1-653) (enzyme), sequence (Q13049 whole entry): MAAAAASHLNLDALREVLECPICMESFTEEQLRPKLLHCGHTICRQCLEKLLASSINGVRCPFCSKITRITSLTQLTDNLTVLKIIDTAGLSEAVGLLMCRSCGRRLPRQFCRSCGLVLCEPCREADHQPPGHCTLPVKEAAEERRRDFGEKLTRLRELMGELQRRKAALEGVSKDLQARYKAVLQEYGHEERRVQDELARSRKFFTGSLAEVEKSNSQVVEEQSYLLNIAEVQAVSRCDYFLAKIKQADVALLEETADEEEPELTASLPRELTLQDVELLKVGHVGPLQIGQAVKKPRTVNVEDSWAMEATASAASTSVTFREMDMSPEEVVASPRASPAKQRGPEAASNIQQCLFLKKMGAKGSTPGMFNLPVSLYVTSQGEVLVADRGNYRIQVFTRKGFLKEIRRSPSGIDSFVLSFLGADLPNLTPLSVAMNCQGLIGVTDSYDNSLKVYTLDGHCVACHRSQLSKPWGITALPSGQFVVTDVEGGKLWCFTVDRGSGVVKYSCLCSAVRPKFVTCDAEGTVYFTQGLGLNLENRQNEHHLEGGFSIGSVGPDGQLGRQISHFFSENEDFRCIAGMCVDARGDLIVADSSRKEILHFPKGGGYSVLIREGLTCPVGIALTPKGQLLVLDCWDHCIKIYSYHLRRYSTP
wild-type TRIM32 (expressed from pEGFP-N1 in mouse differentiated skeletal muscle cells) (from UniProt Q13049 1-653), sequence (Q13049 whole entry): as above

Row | Caffeine response (normalized ratio to vector control) | KCl response (normalized ratio to vector control) | Releasable Ca^2+ level from SR (normalized ratio to vector control) | Substance
1 | 0.97 | 0.94 | 0.99 | NHL-Del (mutant of TRIM32 without NHL repeats, expressed from pEGFP-N1 in mouse differentiated skeletal muscle cells) (from UniProt Q13049 1-361) (enzyme)
2 | 1.22 | – | – | wild-type TRIM32 (expressed from pEGFP-N1 in mouse differentiated skeletal muscle cells) (from UniProt Q13049 1-653)
3 | – | 1.27 | 1.48 | wild-type TRIM32 (expressed from pEGFP-N1 in mouse differentiated skeletal muscle cells) (from UniProt Q13049 1-653) (enzyme)
